In assay [1] the test system is HT1080 (human fibrosarcoma). The assay can be described thus: Egg CAM assay, angiogenesis induced by VEGF-secreting cancer cells. Type of assay: in vivo. The following applies: egg CAM, 10^5 HT1080 cells/egg with 0.1 μg peptide; for Angiogenic activity(%): (standard deviation). As for the experimental part: An experiment using egg CAM was carried out to confirm the inhibitory activity of the screened peptides against the angiogenesis induced by cancer cells, which secrete VEGF. Fertilized eggs were deprived of albumin and windows were formed on the eggs as in above. 10^5 cells of HT1080 (human fibrosarcoma) were mixed with 7.5 μg of Type I collagen (rat tail, Beckton Dickinson, USA) within a volume of 5 μl and dropped onto ¼ fraction pieces of Thermanox coverslips to give collagen sponges. After being covered with the collagen sponges, 10-day embryonic egg CAM was incubated at 37° C. for 3 days. Blood vessels induced by the cancer cells were observed and photographed as in above (see Table 6 and FIG. 12).

The next assay concerns the target T1, VEGF (Homo sapiens, UniProt P15692).
T1 sequence (P15692 27-191 isoform P15692-4): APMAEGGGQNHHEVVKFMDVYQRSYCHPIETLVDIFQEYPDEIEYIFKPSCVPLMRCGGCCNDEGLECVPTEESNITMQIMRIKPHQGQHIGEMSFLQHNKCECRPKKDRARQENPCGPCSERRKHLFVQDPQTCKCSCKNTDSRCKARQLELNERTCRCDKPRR
The experiment in a line: Inhibition of 125I-labeled VEGF binding to its receptors on HUVEC. As to conditions: 10 μM peptide (FIG. 6). As for the experimental part: Then, the cells were transferred to a medium (Medium 199/25 mM HEPES, pH 7.4/0.1% bovine serum albumin) containing 0.2 ng of ^125I-labeled VEGF and various concentrations of peptides or combinatorial peptide libraries and reacted at 4° C. for 3 hours. The cells were washed twice with the same medium and once with PBS containing 0.1% albumin to remove the labeled VEGF which still remained uncombined. Thereafter, to quantify the labeled VEGF which bound to receptors present on the surface of the vascular endothelial cells, the cells were treated with 0.5 ml of a lysis solution (20 mM Tris-HCl, pH 7.4/1% TritonX-100) for 20 min, followed by measuring the resulting lysate for radioactivity with the aid of a γ-counter.
The sequence of each peptide was indirectly decided through the analysis of amino acid compositions and its concentration was determined, after which 12 peptides were assayed for antagonism toward VEGF binding at various concentrations (1, 4, 10, and 20 μM/sequence).

The subject of assay [2] is egg CAM (chorioallantoic membranes). The experiment in a line: Egg CAM assay, angiogenesis induced by VEGF. Type of assay: in vivo. As to the method: Fertilized eggs (Pulmuwon, Korea) were incubated at 37° C. under a humidity of 90%. After three days of culturing, the eggs were deprived of about 2 ml of albumin. After four days, eggs were partially deprived of the sheath to make a window with a size of 2×2 cm.
After VEGF (10 ng/egg) was mixed with various amounts of peptides or other samples, 3 μl of each mixture was dropped onto ¼ fraction pieces of thermanox coverslips (Nunc) and dried. The pieces were placed on CAM of 9-day embryonic eggs.
Two days later, the samples were independently observed under anatomical microscopes by two different persons to determine whether new blood vessels are induced by the dropped samples or not. In this regard, the experiment was repeated at least three times using 10 or more eggs per sample and the results are given in Table 5, below.

The subject of assay [3] is HM7 (human colon carcinoma cell line). The experiment in a line: Liver metastasis of HM7 cells transplanted into the spleen of nude mice. It is filed as in vivo. The text has this: In order to conduct an experiment concerning the metastasis of cancer cells to the liver, cancerous cells were transplanted into the spleen. In this regard, after being anesthetized with diethyl ether, 4-week-old male mice (athymic nude mice, BALB/c/nu/nu, Charles River, Japan) underwent flank incision. […] Four weeks after the injection, the liver was excised from each mouse and measured for weight and the size and number of metastatic nodules formed. Each test group was composed of 6-7 mice. In a student's t-test, a p value less than 0.05 was regarded as being statistically significant. In the test using tetrazolium dye (cell titer 96 Non-radioactive Proliferation Assay Kit, Promega), each peptide was evaluated to have no influence on the growth of the cancer cells (5×10^3 cells/well), so that the possibility that the toxicity of the peptide themselves might inhibit the growth and metastasis of cancer cells could be excluded.

In assay [4] the target is VEGF receptors present on the surface of HUVEC. The assay can be described thus: Binding of 125I-labeled VEGF165 to HUVEC, Scatchard analysis. More on the design: species or system human. As to the method:
First, HUVEC (human umbilical vein endothelial cells) (Clonetics) were placed on gelatin-coated 100 mm dishes (Falcon) containing a vascular endothelial cell culture medium (Medium 199+20% BCS, 5 μg/ml of heparin, 6 μg/ml of endothelial cell growth supplement, 5 ng/ml of basic fibroblast growth factor) and cultured at 37° C. in a CO2 incubator for animal cell culture. After a certain period of time, the cells were treated with trypsin/EDTA. After centrifugation, the cells harvested were suspended in a fresh, vascular endothelial cells culture medium and aliquoted at a density of 5×10^4 cell/well to a 24 well plate (Costar Co.). […] Thereafter, to quantitatively determine the amount of the labeled VEGF which bound to receptors present on the surface of the vascular endothelial cells, the cells were treated with 0.5 ml of a lysis solution (20 mM Tris-HCl, pH 7.4/1% TritonX-100) for 20 min, followed by measuring the resulting lysate for radioactivity with the aid of a γ-counter. As for the non-specific binding, it was determined from a cell group cultured in the presence of a mixture of the labeled VEGF and non-labeled VEGF in a molar ratio of 1:100. […]
The measurement results are shown in FIGS. 1a and 1b in which radioactivity is plotted versus time and concentration, respectively.

Assay [5] deals with VEGF receptors present on the surface of HUVEC (human umbilical vein endothelial cells) (human). The experiment in a line: Scatchard analysis of 125I-VEGF165 binding to HUVEC; the kind of receptor at about 2,000 per cell.
The test system of assay [6] is HM7 (human colon carcinoma cell line). The experiment in a line: Subcutaneous HM7 tumor growth in athymic nude mice. It is filed as in vivo. As to conditions: after 15 days of subcutaneous injection. As to the method:
From the next day, a solution of each peptide in PBS (0.5 μg/100 μl/day) was subcutaneously injected to the mice for 15 days. Sizes of the tumors thus formed were periodically measured while tumor volumes were calculated according to the following formula: Tumor Size=0.5×(Diameter)^2×length

For a further assay, the system named is rabbit corneal domes. The assay can be described thus: Rabbit corneal dome angiogenesis induced by VEGF. It is filed as in vivo. As to conditions: VEGF 10 ng with 1 μg peptide, 16 days after operation. As for the experimental part:
To confirm the test results obtained from egg CAM, an experiment was performed using rabbit corneal domes for in vivo angiogenesis testing. New Zealand male rabbits weighing 3 kg (SLC, Japan) were subjected to intramuscular ketamine anesthesia (44 mg/kg), followed by dissecting the corneal domes to a length of 3 mm by use of an operating knife (Bard-Parker—#11). […] 16 days after the operation, angiogenesis was obviously observed and photographs were taken of blood vessels newly formed in the corneal dome (Nikon, FS-2, Japan).

For assay [7], the target named is T2, VEGF (R&D systems), P15692.
T2 chain: T1 sequence (P15692 27-191 isoform P15692-4)
The experiment in a line: cell-based or functional assay.

Assay [8] deals with T3, VEGF secreted from HT1080 human fibrosarcoma cells (human), P15692.
T3 chain: T1 sequence (P15692 27-191 isoform P15692-4)
The assay can be described thus: cell-based or functional assay.

Assay [9] deals with T4, ^125I-labeled VEGF165, P15692.
T4 chain: T1 sequence (P15692 27-191 isoform P15692-4)
The assay can be described thus: 125I-VEGF on plate-fixed peptide, competition; KD computed from the IC50.

Assay [10] has the same target. The assay can be described thus: inhibition of 125I-VEGF binding to its receptors on HUVEC, gamma counting.
Where [11] appears, read: VEGF 10 ng/egg alone or with 1 μg sample.
[12] abbreviates: VEGF 10 ng/egg alone or with 1 μg sample, (standard deviation).

Where “and” joins values, the source holds several entries; their conditions need not be identical. Identical values can stand only once. Entries after “also recorded” stand apart in the source; their conditions may differ. Like-named read-outs stand apart in the source and are kept apart here.

Turning to “KKKKKK: control peptide consisting of only lysine [reference compound]”, the “Angiogenic activity eggs/total eggs” value in [1] is recorded as 14/22; in assay [2] (setting [11]), 8/25. For the same molecule, the “Angiogenic activity(%)” value in assay [1] is 59.0(1.4) %; in assay [1] (listed as control peptide), 59%. Further, in the assay with VEGF, the “inhibition between labeled VEGF and its receptors” value is “no inhibition was observed”. In addition, in assay [3] (weak inhibitory activity, measure not specified), the “metastasis, % of the control group to which only PBS was injected” value was “about 80%”.
As for “^125I-labeled VEGF: radioactive iodine-labeled VEGF165 used as ligand”, the Kd was found to be 3 pM in [4] (receptor density about 2,000 per cell, read-out: dissociation constant (KD), first kind of receptor) and 50 pM in assay [4] (receptor density about 6,000 per cell, read-out: dissociation constant (KD), other kind of receptor).
In [5], “^125I-labeled VEGF165 (from UniProt P15692 27-191) (ligand)” returned a Kd of 3 pM.
“EEFDDA: control peptide of an amino acid sequence EEFDDA [reference compound]”: in assay [3] (mouse, in vivo), the “metastasis of cancer cells versus tumor injected alone” value is on record as “No difference in metastasis”. Moreover, the “effect on tumor size / growth of human colon carcinoma cells in mice” value in assay [6] is given as “no effects”. Further, the “VEGF-induced angiogenesis in the rabbit corneal dome” value with rabbit corneal domes is listed as “had no influence on the VEGF-induced angiogenesis; also recorded: obvious angiogenesis”.
For VEGF, the “Angiogenic activity eggs/total eggs” value in assay [2] (setting [11]) is 9/27. For the same molecule, in assay [2] (setting [12]), the “Angiogenic activity(%)” value is 33.6% and 33.6(3.8) %.
For protamine [reference compound], the “Angiogenic activity eggs/total eggs” value in assay [2] (setting [11]) was 5/26. Besides, the “Angiogenic activity(%)” value in [2] (setting [12]) is 18.8(4.1) % and 18.4(4.1) %; in assay [2] (VEGF with protamine 50 μg/egg as stated in text), “about 18.8%”.

B1: peptide of sequence 1 (SEQ ID NO: 1) (NH2-Arg-Arg-Lys-Arg-Arg-Arg-CONH2) (peptide)
peptide: H-RRKRRR-NH2
Regarding B1, in assay [7], the Angiogenic activity(%), egg CAM, VEGF 10 ng + peptide 1 µg (VEGF alone 33.6, water 10.8) was found to be 15.6%. For the same molecule, the Angiogenic activity(%), egg CAM, HT1080 cancer cells + peptide 0.1 µg (cancer cell alone 76.0, no treatment 18.5) in assay [8] is 36%. Further, in assay [9], the Kd was determined as 5 µM. In assay [10], this molecule yielded an IC50 of 2 µM.

B2: Table 4 peptide 2 (RRKRKR) (peptide)
peptide: RRKRKR
modifications: not checked
Regarding B2, in [10], the half-inhibitory concentration (IC50) was 6 µM.

B3: peptide of sequence 2 (SEQ ID NO: 2) (NH2-Arg-Lys-Lys-Arg-Lys-Arg-CONH2) (peptide)
peptide: H-RKKRKR-NH2
On to B3, for which the Angiogenic activity(%), egg CAM, VEGF 10 ng + peptide 1 µg (VEGF alone 33.6, water 10.8) in assay [7] came to 15.6%. For the same molecule, the Angiogenic activity(%), egg CAM, HT1080 cancer cells + peptide 0.1 µg (cancer cell alone 76.0, no treatment 18.5) in assay [8] came to 43%. The Kd in assay [9] stood at 2 µM. In assay [10], the IC50 turned out to be 3.4 µM.

B4: Table 4 peptide 10 (RKRRRR) (peptide)
peptide: RKRRRR
modifications: not checked
Regarding B4, in assay [10], the IC50 came out at 7.8 µM.

B5: Table 4 peptide 7 (RKKRRR) (peptide)
peptide: RKKRRR
modifications: not checked
As to B5, the IC50 in assay [10] came to 6.5 µM.

B6: peptide of sequence 3 (SEQ ID NO: 3) (NH2-Arg-Arg-Arg-Arg-Arg-Arg-CONH2) (peptide)
peptide: H-RRRRRR-NH2
B6: in [7], the Angiogenic activity(%), egg CAM, VEGF 10 ng + peptide 1 µg (VEGF alone 33.6, water 10.8) came out at 15.6%. Also, the Angiogenic activity(%), egg CAM, HT1080 cancer cells + peptide 0.1 µg (cancer cell alone 76.0, no treatment 18.5) in [8] is 41%. In addition, the Kd in assay [9] stood at 22 µM. Further, the IC50 in assay [10] came to 3.8 µM.

B7: Table 4 peptide 4 (RKRRKR) (peptide)
peptide: RKRRKR
modifications: not checked
Turning to B7, the IC50 in [10] was determined as 8.5 µM.

What is called Kd is the constant that tells how readily two partners part at equilibrium. For orientation: IC50 means the concentration at which inhibition is half-maximal. A higher IC50 goes with weaker potency.

For the origin of these results see patent US7291601B1, “Arginine-rich anti-vascular endothelial growth factor peptides that inhibit growth and metastasis of human tumor cells by blocking angiogenesis” (Korea Greencross Corp., priority 1999, dated 2007).
